In one experiment the target is HLA-A*03:01. Kind of experiment: IEDB peptide-MHC binding, purified MHC/direct/fluorescence; filed as Kd, often an IC50 or EC50 that approximates it; ≥ and ≤ were set here for values at or beyond the usual limits of such assays. The note with it: source organism: Giardia lamblia ATCC 50803.
The target in a further experiment is HLA-A*23:01. The description is as above. The following applies: source organism: Giardia lamblia ATCC 50803.
The target in a further experiment is HLA-A*24:03. The experiment is described as above. The note with it: source organism: Giardia lamblia ATCC 50803.
In experiment [1] the target is HLA-A*29:02. The description is as above. The note with it: source organism: Giardia lamblia ATCC 50803.
Another experiment concerns the target HLA-A*66:01. Described as above. The following applies: source organism: Giardia lamblia ATCC 50803.
Another experiment concerns the target HLA-A*68:02. The description is as above. The following applies: source organism: Giardia lamblia ATCC 50803.
In experiment [2] the target is HLA-B*18:01. The description is as above. The note with it: source organism: Giardia lamblia ATCC 50803.
The target of experiment [3] is HLA-B*27:03. The experiment is described as above. The note with it: source organism: Giardia lamblia ATCC 50803.
Experiment [4] has as its target HLA-B*57:01. Described as above. The note with it: source organism: Giardia lamblia ATCC 50803.
The target of the next experiment is HLA-C*05:01. The description is as above. The note with it: source organism: Giardia lamblia ATCC 50803.
For the next experiment, the target named is HLA-C*12:03. Described as above. The note with it: source organism: Giardia lamblia ATCC 50803.
The target in a further experiment is HLA-A*01:01. The experiment is described as follows: IEDB peptide-MHC binding, purified MHC/competitive/fluorescence; filed as Kd, often an IC50 or EC50 that approximates it; ≥ and ≤ were set here for values at or beyond the usual limits of such assays. The note with it: source organism: Giardia lamblia ATCC 50803.
In another experiment the target is HLA-A*11:01. The description is as above. The following applies: source organism: Giardia lamblia ATCC 50803.
The target in the next experiment is HLA-A*30:02. Described as above. The note with it: source organism: Giardia lamblia ATCC 50803.
The next experiment has as its target HLA-A*68:23. The description is as above. The note with it: source organism: Giardia lamblia ATCC 50803.
In another experiment the target is HLA-B*07:02. The experiment is described as above. The following applies: source organism: Giardia lamblia ATCC 50803.
A further experiment concerns the target HLA-B*08:01. The experiment is described as above. The following applies: source organism: Giardia lamblia ATCC 50803.
The next experiment concerns the target HLA-B*14:02. Described as above. The note with it: source organism: Giardia lamblia ATCC 50803.
The next experiment has as its target HLA-B*15:42. The experiment is described as above.
The next experiment deals with HLA-B*27:05. Described as above. The following applies: source organism: Giardia lamblia ATCC 50803.
The target in a further experiment is HLA-B*40:01. The description is as above. The following applies: source organism: Giardia lamblia ATCC 50803.
For the next experiment, the target named is HLA-B*44:02. Described as above. The note with it: source organism: Giardia lamblia ATCC 50803.
In a further experiment the target is HLA-B*45:06. The experiment is described as above.
A further experiment has as its target HLA-B*51:01. Described as above.
Another experiment concerns the target HLA-B*53:01. Described as above. The following applies: source organism: Giardia lamblia ATCC 50803.
For a further experiment, the target named is HLA-B*58:01. Described as above. The note with it: source organism: Giardia lamblia ATCC 50803.
A further experiment has as its target HLA-B*83:01. Described as above.
Another experiment addresses HLA-C*14:02. The description is as above.
The next experiment deals with HLA-C*06:02. The experiment is described as follows: IEDB peptide-MHC binding, purified MHC/direct/fluorescence; filed as Kd, often an IC50 or EC50 that approximates it; ≥ and ≤ were set here for values at or beyond the usual limits of such assays. The note with it: source organism: Shigella boydii CDC 3083-94.
For a further experiment, the target named is HLA-A*02:01. The experiment is described as follows: IEDB peptide-MHC binding, purified MHC/competitive/fluorescence; filed as Kd, often an IC50 or EC50 that approximates it; ≥ and ≤ were set here for values at or beyond the usual limits of such assays. The following applies: source organism: Shigella boydii CDC 3083-94.
The target in a further experiment is HLA-A*02:19. The experiment is described as above. The following applies: source organism: Shigella boydii CDC 3083-94.
The next experiment has as its target HLA-A*03:19. The description is as above. The note with it: source organism: Shigella boydii CDC 3083-94.
Another experiment concerns the target HLA-A*26:01. The experiment is described as above. The following applies: source organism: Shigella boydii CDC 3083-94.
In experiment [5] the target is HLA-A*29:02. Described as above. The following applies: source organism: Shigella boydii CDC 3083-94.
The next experiment deals with HLA-A*32:07. The experiment is described as above. The following applies: source organism: Shigella boydii CDC 3083-94.
Another experiment addresses HLA-A*32:15. The description is as above. The following applies: source organism: Shigella boydii CDC 3083-94.
Experiment [6] has as its target HLA-B*18:01. Described as above. The note with it: source organism: Shigella boydii CDC 3083-94.
In experiment [7] the target is HLA-B*27:03. The description is as above. The note with it: source organism: Shigella boydii CDC 3083-94.
In another experiment the target is HLA-B*27:20. The experiment is described as above. The note with it: source organism: Shigella boydii CDC 3083-94.
The target in another experiment is HLA-B*40:13. The description is as above. The following applies: source organism: Shigella boydii CDC 3083-94.
In experiment [8] the target is HLA-B*57:01. The experiment is described as above. The following applies: source organism: Shigella boydii CDC 3083-94.
[9] abbreviates: source organism: Giardia lamblia ATCC 50803.
Where [10] appears, read: source organism: Shigella boydii CDC 3083-94.

Some results are limits rather than exact numbers.

Broadly, the Kd is the concentration at which binding is half-saturated. The low end stands for a tighter complex, the high end for a looser complex. With MTYLDGHPV, the Kd in the experiment with HLA-A*03:01 was no less than 20000 nM; in the experiment with HLA-A*23:01, no less than 20000 nM; in the experiment with HLA-A*24:03, no less than 20000 nM; in the experiment with HLA-A*29:02 [1], 6 nM; with HLA-A*66:01, 134 nM; with HLA-A*68:02, no more than 1 nM. The Kd with HLA-B*18:01 [2] was no less than 20000 nM; with HLA-B*27:03 [3] it was no less than 20000 nM; with HLA-B*57:01 [4], no less than 20000 nM; in the experiment with HLA-C*05:01 it was no less than 20000 nM; in the experiment with HLA-C*12:03, 153 nM; with HLA-A*01:01, no less than 5000 nM. Further, the Kd is 138 nM in the experiment with HLA-A*11:01; no less than 5000 nM with HLA-A*30:02; no more than 0.1 nM with HLA-A*68:23; no less than 5000 nM with HLA-B*07:02; no less than 5000 nM with HLA-B*08:01; no less than 5000 nM in the experiment with HLA-B*14:02. In addition, the Kd with HLA-B*15:42 (setting [9]), with HLA-B*27:05, in the experiment with HLA-B*40:01, with HLA-B*44:02, with HLA-B*45:06 (setting [9]) and with HLA-B*51:01 (setting [9]) was no less than 5000 nM each time. In addition, the Kd with HLA-B*53:01 is no less than 5000 nM; with HLA-B*58:01, no less than 5000 nM; with HLA-B*83:01 (setting [9]) it was no less than 5000 nM; with HLA-C*14:02 (setting [9]), 30.3 nM.

In the case of GMMRWCMPV, the Kd with HLA-C*06:02 was no less than 20000 nM; with HLA-A*02:01 it was no more than 0.1 nM; with HLA-A*02:19 it was 0.2 nM; in the experiment with HLA-A*03:19, 1130 nM; with HLA-A*26:01, no less than 20000 nM; in the experiment with HLA-A*29:02 [5] it was 51.5 nM. Also, the Kd with HLA-A*32:07 is 5.2 nM; in the experiment with HLA-A*32:15, 813 nM; with HLA-B*15:42 (setting [10]), 16900 nM; with HLA-B*18:01 [6], no less than 20000 nM; with HLA-B*27:03 [7], no less than 20000 nM; with HLA-B*27:20, 0.4 nM. For the same sequence, the Kd with HLA-B*40:13 was 201 nM; in the experiment with HLA-B*45:06 (setting [10]) it was 69.2 nM; in the experiment with HLA-B*51:01 (setting [10]) it was no less than 20000 nM; with HLA-B*57:01 [8], no less than 20000 nM; with HLA-B*83:01 (setting [10]) it was no less than 5000 nM; with HLA-C*14:02 (setting [10]), 93.6 nM.

Source of the values: the Immune Epitope Database (IEDB).
